Laboratory results as given in PMC3247650 (Pharmaceutical research, 2011).

How the values were obtained:
Porcine kidney DPP IV = Porcine kidney DPP IV (Sus scrofa, UniProt P22411); test: DPP IV degradation of GLP-1 in the presence or absence of PGC or PGC-C18; type: in vitro ADME; settings: 24 hours, 37°C, reverse phase HPLC, mean +/−SD, n=6
[1] = Stability of PGC-C18-GLP-1 formulation at 37°C; type: physicochemical; settings: GLP-1 without PGC-C18, liquid, 100mM glycine pH 6.8, 2mg/ml GLP-1, 37°C, total GLP-1 peak by reverse phase HPLC
Appearance = type: physicochemical; settings: GLP-1 1mg/ml in neutral solution
DPP IV = settings: read-out: Km of DPP IV for GLP-1; cited from earlier work

Sequence of Porcine kidney DPP IV (P22411 whole entry): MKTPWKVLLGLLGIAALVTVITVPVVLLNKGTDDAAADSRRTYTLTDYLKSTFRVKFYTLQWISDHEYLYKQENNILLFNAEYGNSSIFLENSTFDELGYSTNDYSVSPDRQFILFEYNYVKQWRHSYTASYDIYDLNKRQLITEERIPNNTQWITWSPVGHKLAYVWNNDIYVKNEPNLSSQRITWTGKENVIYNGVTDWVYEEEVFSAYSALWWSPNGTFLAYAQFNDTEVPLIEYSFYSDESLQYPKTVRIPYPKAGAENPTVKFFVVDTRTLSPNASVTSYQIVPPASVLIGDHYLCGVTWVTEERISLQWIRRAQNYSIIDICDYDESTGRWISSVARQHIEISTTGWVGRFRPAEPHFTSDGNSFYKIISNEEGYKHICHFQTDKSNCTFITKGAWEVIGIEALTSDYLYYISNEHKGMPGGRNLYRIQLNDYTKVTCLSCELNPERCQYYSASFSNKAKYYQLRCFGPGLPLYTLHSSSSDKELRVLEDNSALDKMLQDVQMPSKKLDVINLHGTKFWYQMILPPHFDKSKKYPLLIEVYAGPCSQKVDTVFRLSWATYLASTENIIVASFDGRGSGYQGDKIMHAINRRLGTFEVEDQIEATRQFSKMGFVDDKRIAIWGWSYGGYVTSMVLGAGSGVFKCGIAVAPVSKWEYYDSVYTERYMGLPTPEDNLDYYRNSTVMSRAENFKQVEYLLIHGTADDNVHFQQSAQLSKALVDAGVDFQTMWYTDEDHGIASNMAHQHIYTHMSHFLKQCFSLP

In the case of Glucagon-like peptide-1 [GLP-1], the “GLP-1 degraded by DPP IV in the presence of the carrier PGC-C18” value (Porcine kidney DPP IV; 1mg/ml GLP-1 + 10mg/ml PGC-C18 (1:10 w/w), PBS pH 7.4, 1.25mU/mL DPP IV) is reported as 26+/−2%, the “GLP-1 degraded by DPP IV, without any carrier” value (Porcine kidney DPP IV; 1mg/ml GLP-1, PBS pH 7.4, 1.25mU/mL DPP IV) is reported as 58+/−5% and the “GLP-1 broken down within a month” value [1] is reported as “greater than 10%”. The “appearance of solution when heated to 50°C” value (Appearance; 50°C) was “quite clear”, the “appearance of solution as it cools down to room temperature” value (Appearance; cooled from 50°C to room temperature) was “turns cloudy and less soluble” and the Km (DPP IV) was 36 µM.
